# Laboratory results: article PMC13596708
# Read-outs that look alike come from different tables or passages of the source.
# What was measured:
# Experiment in all cases: AlphaScreen or HTRF
# [1] = target: HIS-tagged BRD4 short isoform (BRD4-S), wild type (human) (UniProt O60885)
# [2] = target: HIS-tagged BRD4 short isoform (BRD4-S), wild type (human) (UniProt O60885); remark: listed apart in the source
# [3] = target: H4 K12acK16ac nucleosome (human | Xenopus laevis) (UniProt P04908)
# [4] = target: unmodified nucleosome (human | Xenopus laevis) (UniProt P04908)
# [5] = target: H4 K12acK16ac nucleosome (human | Xenopus laevis) (UniProt P04908); remark: listed apart in the source
# [6] = target: H4 K12acK16ac nucleosome (human | Xenopus laevis) (UniProt P04908); remark: listed apart in the source
# [7] = target: unmodified nucleosome (human | Xenopus laevis) (UniProt P04908); remark: listed apart in the source
# [8] = target: H4 K12acK16ac nucleosome (human | Xenopus laevis) (UniProt P04908); remark: listed apart in the source
# [9] = target: unmodified nucleosome (human | Xenopus laevis) (UniProt P04908); remark: listed apart in the source
# [10] = target: H4 K12acK16ac nucleosome (human | Xenopus laevis) (UniProt P04908); remark: listed apart in the source
# [11] = target: unmodified nucleosome (human | Xenopus laevis) (UniProt P04908); remark: listed apart in the source
# [12] = target: H4 K12acK16ac nucleosome (human | Xenopus laevis) (UniProt P04908); remark: listed apart in the source
# [13] = target: unmodified nucleosome (human | Xenopus laevis) (UniProt P04908); remark: listed apart in the source
IC50 [1],IC50 after accounting for the 12 nucleosomes per array [1],IC50 [2],Kd [3],Kd [4],Kd [5],Kd [6],Kd [7],Kd [8],Kd [9],Kd [10],Kd [11],Kd [12],Kd [13],Substance
1 nM,12 nM,2.4 nM,–,–,–,–,–,–,–,–,–,–,–,"12x nucleosome array, H4 K12acK16ac histones (from UniProt P04908 1-130; P06899 1-126; P62799 1-103) (complex)"
3.3 nM,40 nM,1.3 nM,–,–,–,–,–,–,–,–,–,–,–,"12x nucleosome array, unmodified histones (from UniProt P04908 1-130; P06899 1-126) (complex)"
–,–,–,42 nM,37 nM,12.2 nM,37 nM,43 nM,8 nM,6.6 nM,18 nM,71 nM,26 nM,100 nM,"HIS-tagged BRD4 short isoform (BRD4-S), wild type (from UniProt O60885-2 2-722) (natural protein)"
